According to patent US20220213213A1:
Substitutions are numbered along the chain they refer to. One block for each binder: values may come before it.

How the values were obtained:
[1] = target: human/mouse CD137 chimera 1555 (human/mouse chimera) (UniProt Q07011); test: flow cytometry, transfected 293-F cells
[2] = target: human/mouse CD137 chimera 1553 (human/mouse chimera) (UniProt Q07011); test: flow cytometry, transfected 293-F cells
[3] = target: human/mouse CD137 chimera 1550 (human/mouse chimera) (UniProt Q07011); test: flow cytometry, transfected 293-F cells
[4] = target: human/mouse CD137 chimera 1554 (human/mouse chimera) (UniProt Q07011); test: flow cytometry, transfected 293-F cells
[5] = target: human/mouse CD137 chimera 1551 (human/mouse chimera) (UniProt Q07011); test: flow cytometry, transfected 293-F cells
[6] = target: human/mouse CD137 chimera 1552 (human/mouse chimera) (UniProt Q07011); test: flow cytometry, transfected 293-F cells
[7] = target: human/mouse CD137 chimera 1555 (human/mouse chimera) (UniProt Q07011); test: flow cytometry, transfected 293-F cells, Exp 2
[8] = target: human/mouse CD137 chimera 1553 (human/mouse chimera) (UniProt Q07011); test: flow cytometry, transfected 293-F cells, Exp 2
[9] = target: human/mouse CD137 chimera 1550 (human/mouse chimera) (UniProt Q07011); test: flow cytometry, transfected 293-F cells, Exp 2
[10] = target: human/mouse CD137 chimera 1554 (human/mouse chimera) (UniProt Q07011); test: flow cytometry, transfected 293-F cells, Exp 2
[11] = target: human/mouse CD137 chimera 1551 (human/mouse chimera) (UniProt Q07011); test: flow cytometry, transfected 293-F cells, Exp 2
[12] = target: human/mouse CD137 chimera 1552 (human/mouse chimera) (UniProt Q07011); test: flow cytometry, transfected 293-F cells, Exp 2
[13] = target: human/mouse CD137 chimera 1555 (human/mouse chimera) (UniProt Q07011); test: flow cytometry, transfected 293-F cells, Exp 1
[14] = target: human/mouse CD137 chimera 1553 (human/mouse chimera) (UniProt Q07011); test: flow cytometry, transfected 293-F cells, Exp 1
[15] = target: human/mouse CD137 chimera 1550 (human/mouse chimera) (UniProt Q07011); test: flow cytometry, transfected 293-F cells, Exp 1
[16] = target: human/mouse CD137 chimera 1554 (human/mouse chimera) (UniProt Q07011); test: flow cytometry, transfected 293-F cells, Exp 1
[17] = target: human/mouse CD137 chimera 1551 (human/mouse chimera) (UniProt Q07011); test: flow cytometry, transfected 293-F cells, Exp 1
[18] = target: human/mouse CD137 chimera 1552 (human/mouse chimera) (UniProt Q07011); test: flow cytometry, transfected 293-F cells, Exp 1
[19] = target: human/mouse 5T4 chimera E1 (human/mouse chimera) (UniProt Q13641); test: flow cytometry, chimera-transfected cells
[20] = target: human/mouse 5T4 chimera E3 (human/mouse chimera) (UniProt Q13641); test: flow cytometry, chimera-transfected cells
[21] = target: human/mouse 5T4 chimera E5 (human/mouse chimera) (UniProt Q13641); test: flow cytometry, chimera-transfected cells
[22] = target: human/mouse 5T4 chimera E7 (human/mouse chimera) (UniProt Q13641); test: flow cytometry, chimera-transfected cells
[23] = target: human/mouse 5T4 chimera E6 (human/mouse chimera) (UniProt Q13641); test: flow cytometry, chimera-transfected cells
[24] = target: human/mouse 5T4 chimera E2 (human/mouse chimera) (UniProt Q13641); test: flow cytometry, chimera-transfected cells
[25] = target: human/mouse 5T4 chimera E4 (human/mouse chimera) (UniProt Q13641); test: flow cytometry, chimera-transfected cells

B1: 1200/1201 (antibody, V domains shown)
VH: EVQLLESGGGLVQPGGSLRLSCAASGFTFSSYAMSWVRQAPGKGLEWVSGISGGGGGTYYADSVKGRFTISRDNSKNTLYLQMNSLRAEDTAVYYCARDVAYFDYWGQGTLVTVSS
VL: DIQMTQSPSSLSASVGDRVTITCRASQSISSYLNWYQQKPGKAPKLLIYAASSLQSGVPSRFSGSGSGTDFTLTISSLQPEDFATYYCQQYYIPHTFGQGTKLEIK
relative MFI normalized to full-length human CD137 [1]: 0.24 | relative MFI normalized to full-length human CD137 [2]: 0.65 | relative MFI normalized to full-length human CD137 [3]: 0.05 | relative MFI normalized to full-length human CD137 [4]: 0.84 | relative MFI normalized to full-length human CD137 [5]: 0.04 | relative MFI normalized to full-length human CD137 [6]: 0.05

B2: 1214/1215 (antibody, V domains shown)
VH: B1 VH with G50S, S52G, G53S, G57Y, Y59G, D99V, V100G, A101H, Y102P
VL: B1 VL with Y91D, Y92A, I93Y
relative MFI normalized to full-length human CD137 [7]: 0.45 | relative MFI normalized to full-length human CD137 [8]: 0.15 | relative MFI normalized to full-length human CD137 [9]: 0.14 | relative MFI normalized to full-length human CD137 [10]: 0.15 | relative MFI normalized to full-length human CD137 [11]: 0.15 | relative MFI normalized to full-length human CD137 [12]: 0.13 | relative MFI normalized to full-length human CD137 [13]: 0.3 | relative MFI normalized to full-length human CD137 [14]: 0.41 | relative MFI normalized to full-length human CD137 [15]: 0.06 | relative MFI normalized to full-length human CD137 [16]: 0.26 | relative MFI normalized to full-length human CD137 [17]: 0.07 | relative MFI normalized to full-length human CD137 [18]: 0.32

B4: 1206/1207 (antibody, V domains shown)
VH: EVQLLESGGGLVQPGGSLRLSCAASGFTFSGSSMSWVRQAPGKGLEWVSSIYYSGSGTYYADSVKGRFTISRDNSKNTLYLQMNSLRAEDTAVYYCARYGRNVHPYNLDYWGQGTLVTVSS
VL: DIQMTQSPSSLSASVGDRVTITCRASQSISSYLNWYQQKPGKAPKLLIYAASSLQSGVPSRFSGSGSGTDFTLTISSLQPEDFATYYCQQGYYYLPTFGQGTKLEIK
normalized % positive cells [19]: 0.96 | normalized % positive cells [20]: 0.25 | normalized % positive cells [21]: 0.9 | normalized % positive cells [22]: 0.94 | normalized % positive cells [23]: 0.94 | normalized % positive cells [24]: 0.74 | normalized % positive cells [25]: 0.52

B6: 1212/1213 (antibody, V domains shown)
VH: EVQLLESGGGLVQPGGSLRLSCAASGFTFSSYAMSWVRQAPGKGLEWVSYISSYGGYTSYADSVKGRFTISRDNSKNTLYLQMNSLRAEDTAVYYCARYHSGVLDYWGQGTLVTVSS
VL: DIQMTQSPSSLSASVGDRVTITCRASQSISSYLNWYQQKPGKAPKLLIYAASSLQSGVPSRFSGSGSGTDFTLTISSLQPEDFATYYCQQYYYHYLLTFGQGTKLEIK
normalized % positive cells [19]: 0.89 | normalized % positive cells [20]: 0.93 | normalized % positive cells [21]: 0.84 | normalized % positive cells [22]: 0.88 | normalized % positive cells [23]: 0.03 | normalized % positive cells [24]: 0.9 | normalized % positive cells [25]: 1

B7: 1204/1205 (antibody, V domains shown)
VH: EVQLLESGGGLVQPGGSLRLSCAASGFTFSSYYMGWVRQAPGKGLEWVSGIGSYYGYTGYADSVKGRFTISRDNSKNTLYLQMNSLRAEDTAVYYCARAYYDYNYYYAYFDYWGQGTLVTVSS
VL: B6 VL with Y91S, Y92V, Y93P, L96P, L97F
relative MFI normalized to full-length human CD137 [1]: 0.28 | relative MFI normalized to full-length human CD137 [2]: 0.85 | relative MFI normalized to full-length human CD137 [3]: 0.07 | relative MFI normalized to full-length human CD137 [4]: 0.73 | relative MFI normalized to full-length human CD137 [5]: 0.11 | relative MFI normalized to full-length human CD137 [6]: 0.13

B8: 1202/1203 (antibody, V domains shown)
VH: EVQLLESGGGLVQPGGSLRLSCAASGFTFYGSSMSWVRQAPGKGLEWVSSIYYGSSGTYYADSVKGRFTISRDNSKNTLYLQMNSLRAEDTAVYYCARSYYGYFDYWGQGTLVTVSS
VL: B6 VL with Y93T, H94V, Y95V, L96P, L97F
relative MFI normalized to full-length human CD137 [1]: 0.26 | relative MFI normalized to full-length human CD137 [2]: 0.65 | relative MFI normalized to full-length human CD137 [3]: 0.05 | relative MFI normalized to full-length human CD137 [4]: 0.51 | relative MFI normalized to full-length human CD137 [5]: 0.05 | relative MFI normalized to full-length human CD137 [6]: 0.06

Other lines, results leading:

relative MFI normalized to full-length human CD137 [1]: 0.32 | relative MFI normalized to full-length human CD137 [2]: 0.17 | relative MFI normalized to full-length human CD137 [3]: 0.17 | relative MFI normalized to full-length human CD137 [4]: 0.17 | relative MFI normalized to full-length human CD137 [5]: 0.33 | relative MFI normalized to full-length human CD137 [6]: 0.18
B3: 1620/1621 (antibody, V domains shown)
VH: EVQLLESGGGLVQPGGSLRLSCAASGFTFSGYYMYWVRQAPGKGLEWVSGISSSGSYTYYADSVKGRFTISRDNSKNTLYLQMNSLRAEDTAVYYCARSVGPYFDYWGQGTLVTVSS
VL: B1 VL with Y91G, Y92V, I93G, H95Y

relative MFI normalized to full-length human CD137 [1]: 0.12 | relative MFI normalized to full-length human CD137 [2]: 1.24 | relative MFI normalized to full-length human CD137 [3]: 0.11 | relative MFI normalized to full-length human CD137 [4]: 1.01 | relative MFI normalized to full-length human CD137 [5]: 0.67 | relative MFI normalized to full-length human CD137 [6]: 1.2
B5: 1618/1619 (antibody, V domains shown)
VH: EVQLLESGGGLVQPGGSLRLSCAASGFTFSYGSMYWVRQAPGKGLEWVSSISSGSGSTYYADSVKGRFTISRDNSKNTLYLQMNSLRAEDTAVYYCARSSYYGSYYSIDYWGQGTLVTVSS
VL: B4 VL with G91Y, Y93D, Y94N

relative MFI normalized to full-length human CD137 [1]: 0.29 | relative MFI normalized to full-length human CD137 [2]: 0.14 | relative MFI normalized to full-length human CD137 [3]: 0.1 | relative MFI normalized to full-length human CD137 [4]: 0.12 | relative MFI normalized to full-length human CD137 [5]: 0.11 | relative MFI normalized to full-length human CD137 [6]: 0.11
B9: 1626/1627 (antibody, V domains shown)
VH: EVQLLESGGGLVQPGGSLRLSCAASGFTFGGYSMYWVRQAPGKGLEWVSSIGGYYYSTYYADSVKGRFTISRDNSKNTLYLQMNSLRAEDTAVYYCARSYYGSIDYWGQGTLVTVSS
VL: B6 VL with Y91G, Y92T, Y93G, H94Y, Y95G, L96P
